Assay results published in paper PMC7840982, “Purification of Crimean–Congo hemorrhagic fever virus nucleoprotein and its utility for serological diagnosis” (Scientific Reports, 2021).

Molecular target: the molecule itself
Assay: negative-stain transmission electron microscopy

B1: Crimean–Congo hemorrhagic fever virus nucleoprotein (strain IbAr10200), recombinant, untagged (natural protein)
chain: MENKIEVNNKDEMNRWFEEFKKGNGLVDTFTNSYSFCESVPNLDRFVFQMASATDDAQKDSIYASALVEATKFCAPIYECAWVSSTGIVKKGLEWFEKNAGTIKSWDESYTELKVDVPKIEQLTGYQQAALKWRKDIGFRVNANTAALSNKVLAEYKVPGEIVMSVKEMLSDMIRRRNLILNRGGDENPRGPVSHEHVDWCREFVKGKYIMAFNPPWGDINKSGRSGIALVATGLAKLAETEGKGIFDEAKKTVEALNGYLDKHKDEVDRASADSMITNLLKHIAKAQELYKNSSALRAQSAQIDTAFSSYYWLYKAGVTPETFPTVSQFLFELGKQPRGTKKMKKALLSTPMKWGKKLYELFADDSFQQNRIYMHPAVLTAGRISEMGVCFGTIPVANPDDAAQGSGHTKSILNLRTNTETNNPCAKTIVKLFEVQKTGFNIQDMDIVASEHLLHQSLVGKQSPFQNAYNVKGNATSANII
notes: also called CCHFV NP; NP
- binding result: binds
